Test results from article PMC6222646, “HIV-1 Integrase-Targeted Short Peptides Derived from a Viral Protein R Sequence”.

Key:
HIV-1 integrase (IN) = HIV-1 integrase (IN) (HIV-1 (strain ), UniProt P12497 1148-1435); test: fluorescence anisotropy; IN-activity buffer: 50 mM MOPS pH 7.2, 7.5 mM MgCl2, 14 mM 2-mercaptoethanol; 10 nM DNA, +/- 400 nM IN; 5 min room temperature preincubation, anisotropy read every 30 s for 30 min; conditions: protein: recombinant; tags: His6 or FLAG constructs described; chain copies: 4; label: AlexaFluor 488 at 5' end of 21T; blunt
[1] = biological target: Vpr-derived peptide 1a, Vpr(69-75) (HIV-1, UniProt Q73369); test: fluorescence anisotropy; 7.5 mM MgCl2; peptide up to 37 µM, no IN; IN-activity buffer: 50 mM MOPS pH 7.2, 7.5 mM MgCl2, 14 mM 2-mercaptoethanol; 10 nM DNA, +/- 400 nM IN; 5 min room temperature preincubation, anisotropy read every 30 s for 30 min; conditions: label: AlexaFluor 488 at 5' end of 21T; blunt
Vpr-derived peptide 1a, Vpr(69-75), sequence (Q73369 whole entry, looked up): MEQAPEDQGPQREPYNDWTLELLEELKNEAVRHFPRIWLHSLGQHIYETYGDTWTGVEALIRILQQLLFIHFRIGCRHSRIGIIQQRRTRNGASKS

B1: 21T/21B duplex (HIV-1 viral DNA end substrate) (dsDNA)
DNA 1: GTGTGGAAAATCTCTAGCAGT
DNA 2: ACTGCTAGAGATTTTCCACAC
binding result (HIV-1 integrase (IN)): binds
binding result [1]: no binding
